# Assay results reported in a protein production outcome set (Wang et al. 2014).
# Experiment: label from the status in PepcDB records
# 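Note: failed if final PepcDB status was selected cloned or expressed and not failed if soluble or beyond.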
row,Sequence,protein production
1,MLVNGKWTADWQPVQKADDHGRFVRQVSSFRNWITPDGSAGPTGTGGFAAEAGRYRLYVALICPWASRTLMARRLKGLDGLIPVTVVNPVMGTQGWEFGGHDDAEEDPLFGARHLHEIYTRAEPQFTGRATVPVLWDMKRDAMVNNESADILRMFDTAFEGLAPSDLRLYPAALAGEIDALNAQVYDRLNNGVYKAGFASTQEAYDEAVAGVFEMLDHLEYRLTGDYIFGGALTETDIRIFVTLIRFDAAYHGLFKTNRRQIADYPRLWAYMRRILARPGVRETVNMDHITRGYYSIKALNPSRIRPVGPAHIEAALRETAAGI,not failed
2,MRMQQDVQDVKLIAVLNLLNQLSNKNSLEEYLNGVIDFLSGWTGCENIGIRVLREAGLAPYVVHRGFDKDFIASESCISVEGDECVCLRVLKQQFKSEDQDHISAAGTYYAPNFYRYVEELREDQLLNFRGLCAHKQFKSLAVIPLLHQGKVVGAIHIADIKDGVFSEEDIHFIETIRPLVAEAIYRHNLEKALESTVLRYEAEEMVIRKLKFEERLASISARFNQQEDFKAAAEESLKDILKLFKAEEVCLYLGGNLKEYVSVREHGQQACGCVIPSDTFAELRGRWKQGEILCQKPALQDEFKEIEYFAQEVFSKDSILTIPLNFKGSLLGVLIIVNISSGGLPFKEILNPLKLVTETFANAVEQGRIQYQLMWSENRYRTIFNHSGSAFLIVDENLKILLSNPQAERLLDLPSAKIDNIAYLTDFLPDTEVGRLKEYNRRRLQRDPQIPRQYEMKYKDSRGNLKDVIVSAEVIPQTTQTVLSIIDITEWKKTEAELQFLNLHDRLTGLYNRVYFEQELRRYETDPGQEVGLIMADVNGLKLINTTFGSEAGDQVLVTTARLLNECFEEHLVARIGGDEFAVLIEKDKNVDLEQACQLFRRNVEKYNKDHDGYPLDISLGYACSGAGGVNMSELLRKADDAMGREKLHSNNSTRNSQVQILSKALECRDFITEGHAERVQNLIISTGQLAGLSEQRLSDLKLFAQFHDIGKVGIPDQILFKKGRLTADEWEIMKQHCEIGYRIAQSTPDIYPIADWILKHHENWDGSGYPLGIAGEEIPIECRILAVADTFDAMTNDRPYRKAQSTQAAIEEILRCAGTQFDPHIVELFVKTV,failed
3,MAQNEGVSFSECVAAAKLIRSSNGPGWRQAWEELARSHVQRAEEARRTGNEPEAQKSWLHAANYFMAAAIESCPEGAEPALGALARSCLHNYLAHLTPQGETVAIPWLEPRSLEGFYLPVGTYSAETGPVVVCIAETRRTKEEILSLVLRSARKRGMTLLCVDLPDEPPSSRAGPETGIPAILDYLIDGRGIDAKRIAVISDGSPSSLVTRGIALDGRIAAAVCDGGLWDLWVARQTEACGAALGMVQGCARRPAVSCPMLVPLLASEGIEPGHARQLLTEHHPGNRDILLKVFGETSSGPWTLNGYDPILVADFVFDWVGQQLKAATGDADCIRRLESRL,failed
4,MKKLNIALLGLGTVGSGVVKIIEENRQQIQDTLNKDIVIKHILVRDKSKKRPLNISQYHLTEDVNEILNDDSLDIIVEVMGGIEPTVDWLRTALKNKKHVITANKDLLAVHLKLLEDLAEENGVALKFEASVAGGIPIVNAINNGLNANNISKFMGILNGTSNFILSKMTKEQTTFEEALDEAKRLGFAEADPTDDVEGVDAARKVVITSYLSFNQVIKLNDVKRRGISGVTLTDINVADQLGYKIKLIGKGIYENGKVNASVEPTLIDKKHQLAAVEDEYNAIYVIGDAVGDTMFYGKGAGSLATGSAVVSDLLNVALFFESDLHTLPPHFELKTDKTREMMDSDAEINIKEKSNFFVVVNHVKGSIENFENELKAILPFHRSLRVANYDNQSYAAVIVGLESSPEELITKHGYEVDKVYPVEGV,failed
5,MPTIEDRYARLDAARWLAALAVVLLHSAAQTVSDPAAYGSHAWLAANLYDSAAHWCVPVFVMVSGALLLDPDQPHDARRFYSRRMARVCAPLLFWTLFYLAWRTALDWWDDGRLDFSFWPRKVAEGAPYYHLWYLYMIVGLYLFAPLVRLLYARSQPRARALWVVGILGVAVLDALYRRALGGGNGLFLTWFLPYLGYFVAGRLIFDGELRMPRPGLVLAASVAATAWGVSALSDSRALDLYFYDYFSVTVPLMSLAAFQLIVGSPRLPALPALPALAPLTFGIYLIHPLFLDLAHRIGAARAWRPDAWGVPAITAAVFALSALASWMLRRHRLTRRLV,failed
6,MANNELQIAGSQGELRIRPYEHHAKYYETDQMGIIHHSNYVKWMEEARLDLMDQIGLNYRQMEDMEIISPVLSISVEYHSMVHFDDTVVIYTKLLKYNGIKMELEYVMKDKETGELRTTAKSSHCFLNKSGKPISLKRMYPELDTKFFEFKEA,failed
7,MVEGSQEAKVAEILQKMEEMIGEEPKPQKLFSKVAPEWLERQMDERQFVMSLESIPEKYKHLIMIAVAAAVGSKMCTEVFTKIAKRRGVSEREIGEAILVARFALASTIFATVTPALEWLEGGDEE,failed
8,MDDLTNLAARLRLLEDREEIRELIARYGPLADSGDAEALSELWVEDGEYAVVGFATAKGRAAIAALIDGQTHRALMADGCAHFLGPATVTVEGDTATARCHSVVFRCVSGTFGSHRVSANRWTFRRTPAGWRAVRRENALLDGSAAARALLQFR,not failed
9,MSAKIVTVFNQKGGCGKTTVSMHIAGTLGVRGSKTLLVDMDEQGTATRWAAQAPEEKPFPASVIGLAPSGGAMHREVRKFIADYDYIVVDCPPAVHSPASSSALLISDIAIIPVVPSPPDLWAAVAAKALAQQAQVTNETLRVRVLANMVQRRVSLAKQAIEILGDDGDIPLMESMIGSRSAFRECQAIGATVHGVPGAREAINEVDIMVNEVLQLLREGQA,failed
10,MREPVDLRRQRILAAVQARGTARVRDLADELQVSVVTVRRDVEELTREGRLSRGHGVVRSTLPARESAPEAVPAAGDRVAVVVPVRHSYLTETLHGARTVLERAGVRMALHLAPQASGAERPLVERALADGADGLLIAPRWRGRADEEADHEWLAGTGVPTVLMERRPWRGSALHALDSVCSDHWYGAHLAVEHLVGLGHRRIVVATRHDSPTARSLRAAFTEIAGAHPLVERWAWTLVAPEAGADGPYSADETAEPPALMRKVGATAMVLHGDVDALMVVQRLAEEGVRVPEDCSVVAYDDVVAGLAAPPLTAVSPPKAEVGHTAAELLLQRLTEAPGGRRPGRRVELLPRLMVRGSTDRSVEPLDE,failed
11,MLAIRRGASMPPLNRSDDLMPGIDEIPERRDEVSLGDLLLEVLRFYQQFGRLLIPLAVLCGVLAGVVVATRPLYAVTALLETPQMSLEQWRKLQPMLADRQLVAASLASMTELPPEQRERLQRAFVLKKYWDTRVTYRSAVERDDIRQQVNIDAKSVGALGLEVSLYARDDAAANQQLDAIAQHVRQVVLWGGLRDYLDSLRQQTLEQRPQLQIDQIQQRYAIEQNERQAADMQQLLERYPELRRNEVNTVVSVGDGGGRYLSPLAQIVALQSTIAGTRTTLRQVERELEQLDGKQRFLARVDQRAPGLHLGRALADWVQSCRRAVFGSGTPSGSALSQVASEIDLALSQQRWRAQLVRYRAIPALSPAPVPSRRPALVALAVFLGVLLVASLGLAMYVIARRNGDRHASWSAHADPLFAWLPQRMRGLLLGPTDARPLGSG,failed
12,MVRKSIDRSTAAEITRGIGNVFADLGMPDAEERQTKLRLAYALNAVIDRARLSQAAAAARLGINQPKVSALRNYKLEGFSVERLMTLLNALDQDVEIVIRKKPRSRAAARISVVAA,not failed
13,MATPKFAEIKQYITGCIESGEWEENARVPSENQLAELFVCSRMTARRALTELTDNGVLERSQGLGTFVAGRKSQSSMLAIRNIADEIKDRGHGYSVQQLALEQVNATAPIAIALALDVGSPVFHSILVHCEQGVPLQVEERYVNPAFAPDYLVQDFSEQTPHEYLSQVAPLTEAHHTIEAIIASSELQQRLAIPATEPCLQISRRTWSRQGVVSFAKLVHPGSRFKLGGHLTFNK,failed
14,MLNKVNLADIRSFVLIAQLGNFTKAAEALSVSRSHVSRQISGLEAQMGVTLLNRTTRTLRLTHAGERFYHDCEKALRDIDQALIAAVDDTQEIRGVIRVNCVGGYIGEDIIAKYVCEFMQQYPNVSIDLDFSSPRIDLIEDQFDVAFRMGELDDAGFVARKLMTVDMVTLASPSYVQQYGMPIHPKELAEHRTLTGSVARWSYRKADNPNDHTDVVVKGNLRCKNGRALVMGALHGNGIIRVPLSYCAEEVELGQLIKVMPNWEIPSVPFSAIFHRDRYQPKRLRTFIDFIKQKFEDS,failed
15,MNEPLSSLELLPEEEGGANLTYFAFAAPTASAPDLPAVLPGPLPDVLSGRYRLERMLGAGGMGTVYRARDLLHEQFGDPAPLVALKLLNESVAESPDASALLYSEFALTRRLRHPNVVRLFTFDVDTACQRAYIVMELMPGLPLDRLLCERPEGLPWSELSAIARPLLDVLAYVHEQGVLHGDLKPSNVMLGEEGVRLFDFGLGQAQAGILDGLPQLSRGRIDAWTPGYAAPELLEGAPLSPAADLYALACVLYELADGRHPFRRLPSNQAREQGLERQLRAPRHLPRRCWPALRTALSLDPERRCIGVRELQEALGARRSWLAGVLAR,failed
16,MTPFTQSQRIKALFWLSLFHLLVIISSNYLVQLPITIFGFHTTWGAFSFPFIFLATDLTVRIFGAPLARRIIFAVMIPALLVSYVVSSLFYMGAWQGFAALANFNLFVARIAAASFMAYALGQILDVHVFNRLRQNRRWWLAPTASTLFGNISDTLAFFFIAFWRSPDAFMAGHWMEIALVDYCFKVLISIIFFLPMYGVLLNMLLKKLADKSEISPLPAS,not failed
17,YDFIDNPGFDESHSLTEMREAFLSFFEDRDHERIDPYPVAANRWRDDVLLTQASIYDFQPLVTSGTTPPPANPLCISQPCIRMQDIDNVGKTGRHTMAFEMMAHHAFNAREDIEDPEQYAYEGEVYWKNETVQYCDELFEEMGANLDEIVYIEDPWVGGGNAGPAIEVIYRGAELATLVFMSMEQDSDGEYEMKDGNRYSPMDTYIVDTGYGLERWTWMSQGTPTVYEAVYPDMIAFLKDNAGIELTDEEERIVHEAAKLAGRMDI,failed
18,MSERNLPLEYHPFPAILPKSATVAMLGTFPPTSEKRCMEFHYPNFQNDMWRIMGLLFYKNLDHFRVDQEKRFDPVRIEAFLREKGIALCSSAQTAIRLKGNASDKDLKIIDAIDMQALLTELPQLKWLFTTGGLATETLLSLLPEKSKLPKTNEWINYPYTTDRTLYLYRLPSTSRAYPLSLAKKVEAYRQFFVRVGVL,failed
19,MSLSTWISYTIACILLISPPGPTVTYLITTSMTHGKKTAYEIVWGSFWGGLVCLILSFIGIGAILKTSGTLYAILRLLGIAYLIYLGIKSFLDANKVKDKTEKMVPPEKGEAFKNGFLLIFLNPKNIIFFASFLPQFINHNSPFLLQTTILSLTYLIVGLINDYLYSFFASNIGNVLGKHSEKWIAYIGGVAMILSAIIVVFQNF,failed
20,MGVSEISRSEEKSGIGFVKLFENNVVFPGFLVWMNQTIQEPLKAEFKRLRNVKELSLKSVSKIETAYEEHRDEEKLEKQLQAWRDNPSWIDQPPKVVVKSQNGLFCHLNIEADVGLPPELVYNIFTHPDNKRYFKNIKENISRKVLIDEGPKQTVEVKQAAAWKFLWWDGTCPIHLIVEENRKNLTSKYKQETTMFMKVFEGCWKVEPLFIDEHLCDRSKPKSQKDYHSCSNGRGRIGSKVTMDQMFQPSALLTPPPLSWYIRGITIKTTESMIEDLFAEATRLRGGKGGGYIDDQGENNVVTEKSKADDIKERWRSHRRSKRRRFTTARSM,failed
21,MKEKDKWIKNFRTRMEGYSEPAPADLWEQLEKELDTVPKVIPMWRRWQAVAAVALLVVVSSLTVWFWQSPSANYLEKQSAELNVMHEPDELVPGSITPEQPMALVVPAARSGKKQHVKVGGVAKAEALAAEQEVLLNKEVEEIQIEENYIEEQKEESVIVEQKQQKQAGRSSYSAAKTNYAYVAPHRKKDRNWSVGLSTGNGTFSSSTSMDGYLPLPNGTRNATMNSAYGVETRAEIDKLVQFNNLSEGKDAQSDIKYRMPVTFGASLRFDLSDDWAVETGVTYTQLSSETRSGTEKNNYGWEEKLHYVGIPLKVNRNIWSNKRFEVYASAGGAVEKCVSGKRSIIGSVSTSNAGKDEQFSGGEENVKVKPLQWSLSAAAGAQFKITEKLGIYAEPGVVYYFDDGSNVNTIRKEHPFNFNIQLGVRFTLPK,failed
